Measurements: article PMC7057269 (Journal of Molecular Biology, 2020)
Substitutions are numbered along the chain they refer to. * marks the point of attachment. Biotin = O=C1N[C@H]2[C@H](CS[C@H]2CCCCC(=O)*)N1; linker = not defined here

Experiments:
Fab397 = experiment: Isothermal titration calorimetry (ITC), NANP repeat peptides to Fab397; assay type: binding, human; conditions: for TΔS / ΔH / ΔS / No. of sites (N-value) / Kd: ITC, arithmetic mean ± SD, n = 4; for TΔS / ΔH / ΔS: Fab397, 25 °C; for No. of sites (N-value) / Kd: peptide in syringe, 8.9 μM Fab397 in cell, DPBS, 25 °C, single-site model
Method: Titrations were performed on a MicroCal Auto-iTC200 (GE Healthcare, Chicago, IL). Prior to the experiments, wild-type Fab397 was extensively dialyzed against Dulbecco's PBS (Thermo Fisher, Waltham, MA). […] The Fab and peptide concentrations were determined by UV absorbance at 280 nm and 205 nm. Molar extinction coefficients for the peptides at 205 nm were estimated using a previously published method. The titrations were all performed with peptides in the syringe and antibodies in the cell and consisted of 16 injections of 2.45 μL peptide at a rate of 0.5 μl/s […], with injection duration of 4.9 s, injection interval of 180 s, and reference power of 5 μCal. Experiments were conducted in quadruplet (N = 4) at 25 °C. Fitting of the integrated titration peaks was performed with Origin 7.0 software using a single-site binding model. The first data point was excluded from the fit as commonly done.
Data for sporozoite ELISA assay (N = 2) were fitted and plotted using GraphPad Prism, version 7.0. For mouse liver burden assay (N = 5 mice), data were compared for significance using a Mann–Whitney U test with p < 0.05 indicated a statistically significant difference. […] All statistical parameters and graphs for the mouse liver burden assay were calculated and plotted using R with the Hmisc and ggplot2 packages. Each ITC experiment was performed with four replicates (N = 4), and the data were reported as the arithmetic mean ± SD.

Fab317 = target: Fab317; parameters: method as in PMID 29138320; conditions: Fab317 with NPNA3; cited from earlier work
[1] = target: T1, biotinylated NPNA3 peptide (Biotin-linker-NPNANPNANPNA-NH2) (Plasmodium falciparum, synthetic CSP …, reading uncertain); experiment: BLI; conditions: both partners purified
T1 construct: not shown: biotin, N-terminal, kept
T1 chain: {Biotin-linker}-NPNANPNANPNA-NH2

[2] = target: T2, NPNA4 peptide (Ac-NPNANPNANPNANPNA-NH2) (Plasmodium falciparum, synthetic CSP …); experiment: ITC; conditions: both partners purified
T2 construct: also called (NANP)4
T2 chain: Ac-NPNANPNANPNANPNA-NH2

[3] = target: T3, NPNA8 peptide (Ac-NPNANPNANPNANPNANPNANPNANPNANPNA-NH2) (Plasmodium falciparum, synthetic CSP …); experiment: ITC; conditions: both partners purified
T3 construct: also called (NANP)8
T3 chain: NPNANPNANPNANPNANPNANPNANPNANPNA

[4] = target: T3, NPNA8 peptide …; experiment: negative-stain electron microscopy; conditions: both partners purified

**Q.** For `CC(=O)N[C@@H](CC(N)=O)C(=O)N1CCC[C@H]1C(=O)N[C@@H](CC(N)=O)C(=O)N[C@@H](C)C(=O)N[C@@H](CC(N)=O)C(=O)N1CCC[C@H]1C(=O)N[C@@H](CC(N)=O)C(=O)N[C@@H](C)C(N)=O` [NPNA2], which TΔS (Fab397) is on record?
**A.** -5859 ± 593 cal/mol

**Q.** And the ΔH (Fab397)?
**A.** -13303 ± 556 cal/mol

**Q.** And the ΔS (Fab397)?
**A.** −19.7 ± 2.0 cal^−1·mol^−1·K^−1

**Q.** What about the “No. of sites (N-value)” value (Fab397) of the same molecule?
**A.** 1.25 ± 0.02

**Q.** Which results are given for `CC(=O)N[C@@H](CC(N)=O)C(=O)N1CCC[C@H]1C(=O)N[C@@H](CC(N)=O)C(=O)N[C@@H](C)C(=O)N[C@@H](CC(N)=O)C(=O)N1CCC[C@H]1C(=O)N[C@@H](CC(N)=O)C(=O)N[C@@H](C)C(=O)N[C@@H](CC(N)=O)C(=O)N1CCC[C@H]1C(=O)N[C@@H](CC(N)=O)C(=O)N[C@@H](C)C(=O)N[C@@H](CC(N)=O)C(=O)N1CCC[C@H]1C(=O)N[C@@H](CC(N)=O)C(=O)N[C@@H](C)C(N)=O` [NPNA4]?
**A.** TΔS (Fab397): -9884 ± 147 cal/mol; ΔH (Fab397): -19915 ± 102 cal/mol; ΔS (Fab397): −33.2 ± 0.5 cal^−1·mol^−1·K^−1; Kd (Fab397): 44 ± 3 nM; No. of sites (N-value) (Fab397): 1.14 ± 0.01

**Q.** With `CC(=O)N[C@@H](CC(N)=O)C(=O)N1CCC[C@H]1C(=O)N[C@@H](CC(N)=O)C(=O)N[C@@H](C)C(=O)N[C@@H](CC(N)=O)C(=O)N1CCC[C@H]1C(=O)N[C@@H](CC(N)=O)C(=O)N[C@@H](C)C(=O)N[C@@H](CC(N)=O)C(=O)N1CCC[C@H]1C(=O)N[C@@H](CC(N)=O)C(=O)N[C@@H](C)C(=O)N[C@@H](CC(N)=O)C(=O)N1CCC[C@H]1C(=O)N[C@@H](CC(N)=O)C(=O)N[C@@H](C)C(=O)N[C@@H](CC(N)=O)C(=O)N1CCC[C@H]1C(=O)N[C@@H](CC(N)=O)C(=O)N[C@@H](C)C(=O)N[C@@H](CC(N)=O)C(=O)N1CCC[C@H]1C(=O)N[C@@H](CC(N)=O)C(=O)N[C@@H](C)C(=O)N[C@@H](CC(N)=O)C(=O)N1CCC[C@H]1C(=O)N[C@@H](CC(N)=O)C(=O)N[C@@H](C)C(=O)N[C@@H](CC(N)=O)C(=O)N1CCC[C@H]1C(=O)N[C@@H](CC(N)=O)C(=O)N[C@@H](C)C(N)=O` [NPNA8] as the molecule, how does the “binding stoichiometry inferred from N-value” (Fab397; ITC with Fab397, peptide:Fab ratio, or number of Fabs per peptide as worded) read?
**A.** two Fabs bind per peptide

**Q.** What about the TΔS (Fab397) of the same molecule?
**A.** -30024 ± 179 cal/mol

**Q.** What about the ΔH (Fab397) of the same molecule?
**A.** -40090 ± 143 cal/mol

**Q.** And the ΔS (Fab397)?
**A.** −100.7 ± 0.6 cal^−1·mol^−1·K^−1

**Q.** And the Kd (Fab397)?
**A.** 41 ± 3 nM

**Q.** And the “No. of sites (N-value)” value (Fab397)?
**A.** 0.56 ± 0.01

**Q.** For “NPNA3: NPNA3 peptide, bound by Fab317 in ref 29 ({Biotin-linker}-NPNANPNANPNA-NH2; reading uncertain; also: linker not given here)”, which Kd (Fab317) is on record?
**A.** 78 ± 16 nM

B1: Fab311 wild type (Fab, V domains shown)
VH: QVQLVESGGGVVPPGRSLRLSCATSGFTFSNYGMHWVRQAPGKGLEWVAIIWYDGSRNFYAASVEGRFTISRDNSKNTLYLQMNSLRVEDTAVYYCARAAYYDTSGYGDYWGQGTLVTVSS
VL: QSVLTQPPSVSGAPGQTVTISCTGGSSNIGAGYDVHWYQQLPGTAPKLLIYGNINRPSGVPDRFSGSKSGTSASLAITGLQAEDEADYYCQSYDRRLSGSWVFGGGTKLTVL
**Q.** Does B1 bind [1]?
**A.** binds

B2: Fab311 HW52A (Fab, V domains shown)
VH: B1 VH with W52A
VL: B1 VL
**Q.** With B2 as the molecule, how does the other [1] read?
**A.** 26%

B3: Fab397 wild type (Fab, V domains shown)
VH: EVQLVKSGGGLVKPGGSLRLSCAVSGFTFTDAWMSWVRQAPGKGPEWVGRIKSNPDGGTTDYAAPVRGRFTISRDDSKNTLYLQMNNLKTEDTAVYYCITDRDFYRSGGSWGQGTLVTV
VL: DIVMTQSPLSLPVTPGEPASISCRSRQSLLYSNGDNYLDWYLQKPGQSPQLLIYLGSNRAPGVPDRFSGSGSGTDFTLKISRVEAEDVGVYYCMQTLQTPHTFGQGTKLEIK
**Q.** Does B3 bind [1]?
**A.** binds

**Q.** And the Kd [2]?
**A.** 44 nM

**Q.** And the dH [2]?
**A.** -19900 cal/mol

**Q.** And the “stoichiometry N” value [2]?
**A.** 1.14

**Q.** What about the Kd [3] of the same molecule?
**A.** 41 nM

**Q.** What about the dH [3] of the same molecule?
**A.** -40100 cal/mol

**Q.** And the “stoichiometry N” value [3]?
**A.** 0.56

**Q.** What about the “stoichiometry N” value [4] of the same molecule?
**A.** 2

B4: Fab397 LY32A (Fab, V domains shown)
VH: B3 VH
VL: B3 VL with Y37A
**Q.** Does B4 bind [1]?
**A.** no binding (tested: 2000 nM)

B5: Fab397 HW33A (Fab, V domains shown)
VH: B3 VH with W33A
VL: B3 VL
**Q.** Does B5 bind [1]?
**A.** no binding (tested: 2000 nM)

B6: Fab397 HD95A (Fab, V domains shown)
VH: B3 VH with D101A
VL: B3 VL
**Q.** Does B6 bind [1]?
**A.** no binding (tested: 2000 nM)

B7: Fab397 HR96A (Fab, V domains shown)
VH: B3 VH with R102A
VL: B3 VL
**Q.** For B7, which other [1] is on record?
**A.** 77%

B8: Fab397 LD30A (Fab, V domains shown)
VH: B3 VH
VL: B3 VL with D35A
**Q.** For B8, which other [1] is on record?
**A.** 66%

B9: Fab317 wild type (Fab, V domains shown)
VH: QMQLVESGGGVVQPGRSLRLSCTASGFTFSTYAMHWVRQSPGQGLQWVAVISYHSTNKYYEDSVRGRFTISRDNSKNTLYLQMNSLRAEDTAVYYCARDGYSSSFFDFWGQGTLVTVSS
VL: DIQMTQSPSTLSASVGDRVAITCRASQSISRWLAWYQQQPGKAPKLLMSGASVLESGVPSRFSGSGSGTEFTLTISSLQPDDFATYYCQHYNSYFVTFGQGTKVEIK
**Q.** For B9, which other [1] is on record?
**A.** 100%

B10: Fab317 LW32A (Fab, V domains shown)
VH: B9 VH
VL: B9 VL with W32A
**Q.** With B10 as the molecule, how does the other [1] read?
**A.** 20%
